Data reported in US20240043563A1 (SHANGHAI MABGEEK BIOTECH, published 2024).
Residue numbers refer to the chain shown, from its start.

B1: humanized anti-human MASP-2 monoclonal antibody 100-Hu (antibody, human IgG4 S228P, kappa, V domains shown)
VH: QVQLVESGGGVVQPGGSLRLSCAASGFTFSNFGIHWVRQAPGKGLEWVAYISSGGSAVFYADTVKGRFTISRDNSKNTLYLQMNSLRAEDTAVYYCAKSDRYFDYWGQGTTVTVSS
VL: EIVLTQSPATLSLSPGERATLSCRASQSVSSSSYRYIHWYQQKPGQAPRLLIYYASNLESGIPARFSGSGSGTDFTLTISSLEPEDFAVYYCQHSWETPWTFGQGTKLEIKR
B2: murine anti-human MASP-2 monoclonal antibody 100 (antibody, V domains shown)
VH: B1 VH with Q1D, V11L, L18R, R19K, G42E, Y80F, N84T, A88S, V93I, V112L
VL: DIVLTQSPASLAVSLGQRATISCRASQSVSSSSYRYIHWYQQKPGQPPRLLIKYASNLESGVPARFSGSGSGTDFTLNIHPVEEEDTATYYCQHSWETPWTFGGGTKLEIK
B3: murine anti-human MASP-2 monoclonal antibody 124 (antibody, V domains shown)
VH: DVQLQESGPGLVKPSQSLSLTCTVTGYSITSDYAWNWIRQFPGNKLEWMGYISYSGRTSYNPSLKSRLSITRDTSKNQFFLQLTSVTTEDTATYYCARHYGDFWGQGTTLTVSS
VL: DIVMTQSQKFMSTSVGDRVSVTCKASQNVDTNVAWFQQKPGQSPKPLIYSASYRYSGVPDRFTGSGSGTDFTLTISNVQSEDLANYFCQQYNSYPSTFGSGTKLEIK
notes: Murine monoclonal antibody purified from hybridoma by Protein G
B4: murine anti-human MASP-2 monoclonal antibody 136 (antibody, V domains shown)
VH: QVQLQQSGAELAKPGASVKMSCKASGNTFTNYWMHWIKQRPGQGLEWVGYINPNTGYTDFNQKFKDKATLTADKSSTTAYMQLISLTSEDSTVYYCTLQLGRNFDYWGQGTTLTVSS
VL: DIVLTQSPASLGVSLGQRATISCRASQSVSSSRSTYIHWYQQKPGQPPKLLIKYSSNLESGVPARFSGGGSGTDFTLNIHPVEAEDTATYYCHQSWEIPYTFGGGTKLEIR
B5: murine anti-human MASP-2 monoclonal antibody 120 (antibody, V domains shown)
VH: DVQLQESGPGLVKPSQSLSLTCTVTGYSITSDYAWSWIRQFLRNKLEWMGYISYSGRTSYNPSLKSRISITRDTSKNQFFLQLNSVTTEDTATYFCARLITGGDYWGQGTSVTVSS
VL: DIVMTQSQKFMSTSVGDRVSVTCKASQNVGINVVWYQQKPGQSPKALIYSASYRFSGVPDRFTGSGSGTDFTLTISNVQSEDLAEYLCLQYDINPLTFGAGTKLELK
notes: as for B3
B6: humanized anti-human MASP-2 monoclonal antibody 126-Hu (antibody, human IgG4 S228P, kappa, V domains shown)
VH: QVQLVESGGGVVQPGRSLRLSCAASGFTFSSFGMHWVRQAPGKGLEWVAYISSGSSSSFYVDTVKGRFTISRDNSKNTLYLQMNSLRAEDTAVYYCARGDRNFEVWGQGTTVTVSS
VL: DIQMTQSPSSLSASVGDRVTITCRASQSVSSSRYSYMHWFQQKPGKAPKLLIYHASNLESGVPSRFSGSGSGTDFTLTISSLQPEDFATYYCQQSWEVPWTFGQGTKLEIKR
B7: humanized anti-human MASP-2 monoclonal antibody 136-Hu (antibody, human IgG4 S228P, kappa, V domains shown)
VH: QVQLVQSGAEVKKPGASVKVSCKASGNTFTNYWMHWIRQAPGQGLEWMGYINPNTGYTDFNQKFKDRVTLTADKSTSTAYMELSSLRSEDTAVYYCTLQLGRNFDYWGQGTTVTVSS
VL: B6 VL with Y34S, S35T, M37I, F40Y, H54Y, A55S, Q93H, V98I, W100Y
B8: humanized anti-human MASP-2 monoclonal antibody 124-Hu (antibody, human IgG4 S228P, kappa, V domains shown)
VH: QVQLQESGPGLVKPSQTLSLTCTVSGYSITSDYAWNWIRQPPGKGLEWMGYISYSGRTSYNPSLKSRLTISRDTSKNQFSLKLSSVTAADTAVYYCARHYGDFWGQGTTVTVSS
VL: DIQMTQSPSSLSASVGDRVTITCKASQNVDTNVAWYQQKPGKAPKLLIYSASYRYSGVPSRFSGSGSGTDFTLTISSLQPEDFATYYCQQYNSYPSTFGQGTKLEIKR
B9: murine anti-human MASP-2 monoclonal antibody 60 (antibody, V domains shown)
VH: QVQLQQSGAELMKPGASVKISCKATGYPFSTYWIEWVKQRPGHGLEWIGEILPGSDNTNYNEKFKGKATFTADTSSNTAYMQLSSLTSEDSAVYYCARRTTATRAWFVYWGQGTLVTVSA
VL: DIVMSQSPSSLAVSVGEKVTMSCKSSQSLLYSSNQKNYLAWYQQKPGQSPKLLIYWASTRESGVPDRFTGSGSGTDFTLTISSVRAEDLAVYYCQHYYTYPWTFGGGTNLEIK
notes: as for B3
B10: murine anti-human MASP-2 monoclonal antibody 115 (antibody, V domains shown)
VH: DVQLVESGGGLVQPGGSRKLSCAASGFTFSSFGMHWVRQAPEKGLEWVAYISSGSSSFFYADTVKGRFTISRDNPKNTLFLQMTSLRSEDTAMYYCARGDRNFDVWGAGTTVTVSS
VL: B2 VL with S30T, S33R, R35S, I37M, Y40F, R49N, Y54H, E85D, T98V
B11: murine anti-human MASP-2 monoclonal antibody 126 (antibody, V domains shown)
VH: B10 VH with A23V, F58S, A61V, D104E
VL: B2 VL with S33R, R35S, I37M, Y40F, R49N, Y54H, H94Q, T98V

Experiments:
[1] = target: T1, human MASP-2 of human serum (human, UniProt O00187 16-686); assay: cell-based or functional assay
[2] = target: T1, human MASP-2 of human serum; assay: cell-based or functional assay; remark: listed apart in the source
Fc-cyno-MASP-2-CCS = Fc-cyno-MASP-2-CCS (human; cynomolgus monkey, UniProt P01857 119-329 = IgG part); assay: ELISA, plate coated with 1 ug/mL Fc-cyno-MASP-2-CCS
Protocol: The titer was tested by ELISA: an ELISA plate was coated with the Fc-hMASP-2A-CCS or Fc-hMASP-2-CCS antigen at a concentration of 1 μg/mL, 100 μL per well, and coated overnight at 4° C. The plate was washed twice with PBST (PBS containing 0.5% Tween-20) and then pat-dried. Each well was blocked with 200 μL of coating solution containing 1% BSA, blocked at room temperature for 4 hours, pat-dried, and stored in a refrigerator at −20° C. for use. During testing, 100 μL of mouse serum at different concentrations was added to each well of the ELISA plate, with two replicate wells for each concentration, and the plate was incubated at room temperature for 1.5 hours. The plate was washed three times with PBST and then pat-dried. 100 μL of HRP-labeled rabbit anti-mouse Ig antibody (purchased from Sigma) diluted with PBST by 1:10000 was added, and the plate was incubated at room temperature for 1 hour. The plate was washed three times with PBST and then pat-dried. 100 μL of chromogenic solution was added to each well (ELISA chromogenic solution A was mixed with chromogenic solution B at a volume ratio of 1:1 before use) for a chromogenic reaction, and then 100 μL of 2 M H₂SO₄ stopping solution was added to each well to terminate the reaction. The OD value of each well was immediately measured at 450 nm with a microplate reader (Molecular Device).
Murine anti-human MASP-2 monoclonal antibodies were purified by a Protein G affinity chromatography column, and then quantified by BCA method. The EC50 of anti-human MASP-2 monoclonal antibody binding to Fc-hMASP-2A-CCS or Fc-cyno-MASP-2-CCS was tested by ELISA. The testing method can refer to Example 2. A 96-well ELISA plate was coated with 1 μg/mL of Fc-hMASP-2A-CCS or Fc-cyno-MASP-2-CCS, and then added with murine anti-human MASP-2 monoclonal antibodies at different concentrations for testing.

[3] = target: T1, human MASP-2 of human serum; assay: cell-based or functional assay; remark: listed apart in the source
[4] = target: cynomolgus monkey MASP-2 of cynomolgus monkey serum (cynomolgus monkey); assay: cell-based or functional assay

T1 sequence (O00187 16-686 limits assumed): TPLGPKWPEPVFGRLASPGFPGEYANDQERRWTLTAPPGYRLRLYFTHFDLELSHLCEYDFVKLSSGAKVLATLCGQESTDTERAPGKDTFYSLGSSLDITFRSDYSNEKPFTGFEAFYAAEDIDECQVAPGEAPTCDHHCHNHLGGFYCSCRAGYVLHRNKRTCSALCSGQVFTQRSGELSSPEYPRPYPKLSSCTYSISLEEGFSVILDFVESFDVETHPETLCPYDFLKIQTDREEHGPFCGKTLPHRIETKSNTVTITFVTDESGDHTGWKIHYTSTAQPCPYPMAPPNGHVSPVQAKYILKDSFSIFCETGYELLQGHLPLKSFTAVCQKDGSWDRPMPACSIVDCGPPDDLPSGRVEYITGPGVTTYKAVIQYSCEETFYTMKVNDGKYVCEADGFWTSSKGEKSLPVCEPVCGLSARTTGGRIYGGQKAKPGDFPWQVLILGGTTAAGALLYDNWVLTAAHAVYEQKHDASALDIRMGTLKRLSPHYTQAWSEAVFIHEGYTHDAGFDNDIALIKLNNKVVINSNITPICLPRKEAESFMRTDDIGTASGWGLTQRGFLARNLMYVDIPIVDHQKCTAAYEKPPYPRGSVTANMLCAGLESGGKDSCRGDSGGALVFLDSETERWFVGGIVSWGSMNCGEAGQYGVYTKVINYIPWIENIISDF

Binder | C4 cleavage IC50 (4% human serum) [1] | IC50 of inhibition of MASP-2-catalyzed C4 cleavage (4% human serum, C4b ELISA) [2] | further results
B1 | 0.281 nM | – | –
B2 | – | 0.238 nM | –
B3 | – | 0.15 nM | EC50 (Fc-cyno-MASP-2-CCS): 0.179 nM
B4 | – | 0.0757 nM | –
B5 | – | 0.275 nM | EC50 (Fc-cyno-MASP-2-CCS): 0.16 nM
B6 | 0.0598 nM | – | IC50 of inhibition of MASP-2-catalyzed C4 cleavage in 90% human serum [3]: 3.46 nM; IC50 of inhibition of MASP-2-mediated C3b production (4% C1q-removed human serum) [3]: 0.494 nM
B7 | 0.311 nM | – | –
B8 | 0.214 nM | – | IC50 of inhibition of MASP-2-catalyzed C4 cleavage in 90% human serum [3]: 3.75 nM; IC50 of inhibition of MASP-2-mediated C3b production (4% C1q-removed human serum) [3]: 1.14 nM; IC50 of inhibition of MASP-2-catalyzed C4 cleavage in 90% cynomolgus monkey serum [4]: 168 nM
B9 | – | 0.161 nM | EC50 (Fc-cyno-MASP-2-CCS): 0.096 nM
B10 | – | 0.0826 nM | –
B11 | – | 0.0774 nM | –
